Assay results as given in paper PMC4212090, “The comprehensive analysis of DEG/ENaC subunits in Hydra reveals a large variety of peptide-gated channels, potentially involved in neuromuscular transmission” (BMC Biology, 2014).

Assays:
[1] = target: HyNaC2/11/5 (Hydra magnipapillata)
[2] = target: HyNaC2/3/5 (Hydra magnipapillata)
[3] = target: HyNaC2/9/7 (Hydra magnipapillata)
[4] = target: HyNaC2/10/7 (Hydra magnipapillata)
[5] = target: HyNaC2/3/6 (Hydra magnipapillata)
[6] = target: HyNaC2/3/7 (Hydra magnipapillata)
[7] = target: HyNaC2/4/6 (Hydra magnipapillata)
[8] = system: functional HyNaC heterotrimer; experiment: Screen of functional HyNaC heterotrimers in Xenopus oocytes for activation by Hydra-RFamides; assay type: cell-based, Hydra magnipapillata; settings: 5 μM peptide; Xenopus oocytes
Procedure: We tested the function of the new HyNaCs by co-expression of different HyNaC subunit combinations in Xenopus oocytes. We screened for functional subunit combinations by application of 5 μM Hydra-RFamide I, a potent agonist of HyNaC2/3/5 [4]. When we expressed an individual HyNaC subunit we could never elicit currents. […] When HyNaC2 was part of the injected cRNA pool, however, Hydra-RFamide I elicited currents. Simultaneous expression of HyNaC2 with a single other HyNaC resulted only in a functional channel when we co-expressed HyNaC2 and HyNaC3; it was already known that HyNaC2 and HyNaC3 form a low-affinity peptide-gated channel.
Dashed line represents the zero current level. Amino acid sequences of Hydra-RFamides I to V are shown at the bottom. HyNaC, Hydra Na^+ channel.
Since Hydra-RFamide II had been shown previously to activate HyNaC2/3/5 [4], we tested Hydra-RFamides II to V for channel activation.
To study the biophysical properties of the new HyNaCs, cRNA of HyNaCs was synthesized in vitro (mMessage mMachine kit, Ambion, Austin, Texas, USA) and injected into Xenopus laevis oocytes of stage V and VI. After injection, oocytes were incubated for one to two days at 19°C in oocyte Ringer’s solution 2 (OR-2), which contained (in mM): 82.5 NaCl, 2.5 KCl, 1.0 Na2HPO4, 1.0 MgCl2, 1.0 CaCl2, 5.0 HEPES, 0.5 g/l PVP, 1,000 U/l penicillin and 10 mg/l streptomycin, NaOH was used to adjust pH to 7.3. Whole cell currents were recorded from defolliculated oocytes by two-electrode voltage-clamp (TEVC) using the amplifier TurboTec 03X (npi electronic GmbH, Tamm, Germany). Standard bath solution (in mM: 140 NaCl, 10 HEPES, 1.8 CaCl2 and 1.0 MgCl2. NaOH was used to adjust pH to 7.4.) was exchanged by a pump driven system combined with the oocyte testing carousel (OTC), which was controlled by the interface OTC-20 [53]. To control the OTC-20 and to record the data to the hard drive, the software CellWorks (version 5.1.1; npi electronic GmbH, Tamm, Germany) was used. Data were sampled at 0.1 to 1 kHz and filtered at 20 Hz. HyNaCs are permeable for Ca^2+, activating an endogenous CaCC [40]. Therefore, unless otherwise indicated, oocytes were injected with 50 nl of 20 mM EGTA 30 to 180 minutes before measurements. Reversal potentials and Ca^2+ permeabilities of HyNaCs were studied as described previously.

Substance: Hydra-RFamide II (peptide)
- EC50 of current activation by Hydra-RFamide II (two-electrode voltage clamp, Xenopus oocytes injected with EGTA) [1]: 950 nM
- EC50 of current activation by Hydra-RFamide II (two-electrode voltage clamp, Xenopus oocytes injected with EGTA) [2]: 1610 nM
- EC50 of current activation by Hydra-RFamide II (two-electrode voltage clamp, Xenopus oocytes injected with EGTA) [3]: 40 nM
- current at the highest concentration of Hydra-RFamide II of the concentration-response series (two-electrode voltage clamp, EGTA-injected oocytes); concentrations and EC50 not given [4]: 1.1 μA
- current at the highest concentration of Hydra-RFamide II of the concentration-response series (two-electrode voltage clamp, EGTA-injected oocytes); concentrations and EC50 not given [5]: 9.2 μA
- current at the highest concentration of Hydra-RFamide II of the concentration-response series (two-electrode voltage clamp, EGTA-injected oocytes); concentrations and EC50 not given [6]: 11.8 μA
- current at the highest concentration of Hydra-RFamide II of the concentration-response series (two-electrode voltage clamp, EGTA-injected oocytes); concentrations and EC50 not given [7]: 4.7 μA

Substance: Hydra-RFamide III
- activation of functional HyNaC heterotrimers (current elicited) [8]: did not elicit a current

Substance: Hydra-RFamide IV
- activation of functional HyNaC heterotrimers (current elicited) [8]: did not elicit a current

Substance: Hydra-RFamide V
- activation of functional HyNaC heterotrimers (current elicited) [8]: did not elicit a current
